Data published in patent US20180186873A1 (CEPHALON, published 2018).
Values joined by “and” are separate entries in the source; they are usually repeats but may differ in a detail not shown here. Identical values can stand only once. Blank lines part the entries; values can stand above or below the binder they belong to.

Key:
[1] = molecular target: T1, recombinant human IL-5 (human, UniProt P05113 20-134); assay: SPR Biacore, Ab on Protein A chip, human IL-5 analyte, run 4.1, replicate 3
[2] = molecular target: T1, recombinant human IL-5; assay: SPR Biacore, Ab on Protein A chip, human IL-5 analyte, run 4.1, replicate 4
[3] = molecular target: T1, recombinant human IL-5; assay: SPR Biacore, Ab on Protein A chip, human IL-5 analyte, run 4.1, replicate 1
[4] = molecular target: T1, recombinant human IL-5; assay: SPR Biacore, Ab on Protein A chip, human IL-5 analyte, run 4.1, replicate 2
[5] = molecular target: T1, recombinant human IL-5; assay: SPR Biacore, Ab on Protein A chip, human IL-5 analyte, run 4.1, average
[6] = molecular target: T1, recombinant human IL-5; assay: SPR Biacore, purified Ab on Protein A chip, human IL-5 analyte, run 4.1
[7] = molecular target: T1, recombinant human IL-5; assay: SPR Biacore, Ab on Protein A chip, human IL-5 analyte, run 4.1, replicate 5
[8] = molecular target: T2, recombinant human IL-5 (human, UniProt P05113 20-134); assay: Biacore SPR run 5.1
[9] = molecular target: T2, recombinant human IL-5; assay: Biacore SPR run 5.1; remark: listed apart in the source
[10] = molecular target: T2, recombinant human IL-5; assay: Biacore SPR run 5.1; remark: listed apart in the source
[11] = molecular target: T3, recombinant human IL-5 (human, UniProt P05113 20-134); assay: SPR
[12] = molecular target: T3, recombinant human IL-5; assay: SPR; remark: listed apart in the source
[13] = molecular target: T3, recombinant human IL-5; assay: SPR; remark: listed apart in the source
[14] = molecular target: T3, recombinant human IL-5; assay: SPR; remark: listed apart in the source
[15] = molecular target: T3, recombinant human IL-5; assay: SPR; remark: listed apart in the source
[16] = molecular target: T3, recombinant human IL-5; assay: SPR; remark: listed apart in the source
[17] = molecular target: T4, recombinant human IL-5 (human, UniProt P05113 20-134); assay: Biacore SPR, Ab supernatant on Protein A chip, average of replicates
[18] = molecular target: T4, recombinant human IL-5; assay: Biacore SPR, purified Ab on Protein A chip
[19] = molecular target: T4, recombinant human IL-5; assay: Biacore SPR, Ab supernatant on Protein A chip

- Kd [1]: 0.109 nM
- koff [1]: 0.000112 s⁻¹
- kon [1]: 1.03e+06 M⁻¹ s⁻¹
- Kd [2]: 0.105 nM
- koff [2]: 0.000106 s⁻¹
- kon [2]: 1.01e+06 M⁻¹ s⁻¹
- Kd [3]: 0.116 nM
- koff [3]: 0.000116 s⁻¹
- kon [3]: 1e+06 M⁻¹ s⁻¹
- Kd [4]: 0.104 nM
- koff [4]: 0.000107 s⁻¹
- kon [4]: 1.02e+06 M⁻¹ s⁻¹
- Kd [5]: 0.106 nM
- koff [5]: 0.000107 s⁻¹
- kon [5]: 1.01e+06 M⁻¹ s⁻¹
- Kd [6]: 0.103 nM
- koff [6]: 0.000109 s⁻¹
- kon [6]: 1.06e+06 M⁻¹ s⁻¹
- Kd [7]: 0.0937 nM
- koff [7]: 9.29e-05 s⁻¹
- kon [7]: 991000 M⁻¹ s⁻¹
B1: 3A5.040 (antibody, human IgG4 S228P, lambda)
heavy: not shown
light: SYVLTQPPSVSVAPGQTARITCGGNNIGSKNVYWYQQKPGQAPVLVVHDDSDRPSGIPERFSGSNSGNTATLTISRVEVGDEADYSCQVWDSSSDHVVFGGGTKLTVLGQPKAAPSVTLFPPSSEELQANKATLVCLISDFYPGAVTVAWKADSSPVKAGVETTTPSKQSNNKYAASSYLSLTPEQWKSHRSYSCQVTHEGSTVEKTVAPTECS

- Kd [8]: 0.181 nM
- koff [8]: 0.000119 s⁻¹
- kon [8]: 657000 M⁻¹ s⁻¹
- Kd [9]: 0.153 nM
- koff [9]: 0.000108 s⁻¹
- kon [9]: 707000 M⁻¹ s⁻¹
- Kd [10]: 0.186 nM and 0.175 nM and 0.187 nM and 0.177 nM
- koff [10]: 0.000122 s⁻¹ and 0.000112 s⁻¹ and 0.000125 s⁻¹ and 0.000117 s⁻¹
- kon [10]: 656000 M⁻¹ s⁻¹ and 643000 M⁻¹ s⁻¹ and 667000 M⁻¹ s⁻¹ and 663000 M⁻¹ s⁻¹
B2: 3A5.040 (antibody, human IgG4 S228P, lambda)
heavy: not shown
light: B1 light

- Kd [11]: 0.148 nM
- koff [11]: 0.000106 s⁻¹
- kon [11]: 717000 M⁻¹ s⁻¹
- Kd [12]: 0.143 nM
- koff [12]: 9.95e-05 s⁻¹
- kon [12]: 696000 M⁻¹ s⁻¹
- Kd [13]: 0.16 nM
- koff [13]: 0.000115 s⁻¹
- kon [13]: 720000 M⁻¹ s⁻¹
- Kd [14]: 0.139 nM
- koff [14]: 9.91e-05 s⁻¹
- kon [14]: 715000 M⁻¹ s⁻¹
- Kd [15]: 0.123 nM
- koff [15]: 8.96e-05 s⁻¹
- kon [15]: 727000 M⁻¹ s⁻¹
- Kd [16]: 0.128 nM
- koff [16]: 9.21e-05 s⁻¹
- kon [16]: 718000 M⁻¹ s⁻¹
B3: 3A5.040 (antibody, human IgG4 S228P, lambda)
heavy: not shown
light: B1 light

- Kd [17]: 0.149 nM
- koff [17]: 0.000105 s⁻¹
- kon [17]: 703000 M⁻¹ s⁻¹
- Kd [18]: 0.092 nM
- koff [18]: 6.63e-05 s⁻¹
- kon [18]: 721000 M⁻¹ s⁻¹
- Kd [19]: 0.148 nM and 0.149 nM
- koff [19]: 0.000103 s⁻¹ and 0.000106 s⁻¹
- kon [19]: 696000 M⁻¹ s⁻¹ and 710000 M⁻¹ s⁻¹
B4: 3A5.040 (antibody, human IgG4 S228P, lambda)
heavy: not shown
light: B1 light
